Test results: the supplement of paper PMC9732359
± gives the uncertainty stated by the source.

Test: protein stability index of a GFP-peptide fusion (yeast GPS) (PSI 1-4); higher = more stable; sorted into four equal gates, so the index is relative within each strain
Summary of the method: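 Tiled 17-residue yeast protein peptides were fused downstream of GFP in a plasmid that also expresses Cherry, and the pooled library was carried in yeast. Mid-log cultures in leucine-free medium were sorted into four equal gates by GFP/Cherry fluorescence ratio, and plasmids from each gate were PCR-amplified and Illumina-sequenced, with reads assigned to strains by barcodes. The protein stability index for each peptide was each gate's read frequency times its gate number, summed.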

| Sequence | protein stability index (doa10∆) | protein stability index (pdr5∆) | protein stability index (san1∆) | protein stability index (ubr1∆) |
| --- | --- | --- | --- | --- |
| ESAAVYNGRGARERKTA [SNF2] | 2.55 ± 0.067 | 2.3 ± 0.057 | 2.76 ± 0.06 | 2.78 ± 0.06 |
| DLFSNNNYNSRIQLMND [MED1] | 3 ± 0.2 | 2.9 ± 0.25 | 2.93 ± 0.11 | 3.06 ± 0.13 |
| ALYRVNDLRDMILNYNP [UBP6] | 2.81 ± 0.12 | 2.73 ± 0.19 | 2.81 ± 0.17 | 2.99 ± 0.12 |
| EEELWNSPSKGNSERPS [YIL149C/MLP2] | 3.11 ± 0.1 | 3.38 ± 0.083 | 3.24 ± 0.061 | 3.27 ± 0.095 |
| TLSKTTDSSALTYDRLE [PRE9] | 3.16 ± 0.1 | 2.99 ± 0.13 | 2.89 ± 0.1 | 2.94 ± 0.058 |
| CHSKLRGQQVENPTDNF [GRR1] | 2.86 ± 0.22 |  |  |  |
| NVLNQINQIFSPEEQRS [GAL11] | 2.83 ± 0.045 | 2.93 ± 0.035 | 2.91 ± 0.039 | 2.81 ± 0.038 |
| PRQRMEEVVSNDEGVWD [PRP8] | 3.45 ± 0.068 | 3.45 ± 0.056 | 2.87 ± 0.06 | 3.06 ± 0.048 |
| VDNSPTTESNSRLKALN [YLR335W/NUP2] | 3.18 ± 0.07 | 3.12 ± 0.057 | 3.11 ± 0.058 | 2.97 ± 0.059 |
| TLEQKVNLENPIPIAVL [FAS1] | 1.35 ± 0.048 | 1.4 ± 0.041 | 1.57 ± 0.095 | 1.39 ± 0.028 |
| SKLLQTTLKLSPSPILL [NUT1] | 2.4 ± 0.045 | 1.47 ± 0.051 | 1.72 ± 0.091 | 1.5 ± 0.046 |
| GLSPKKVGEDIAKATKE [RPL12A] | 3.03 ± 0.16 | 3.22 ± 0.14 | 3.13 ± 0.18 | 2.77 ± 0.24 |
| GHTLINNYKDLLAVAIA [RPP0] | 1.19 ± 0.17 | 1.61 ± 0.24 | 1.31 ± 0.17 | 1.18 ± 0.16 |
| RLAEFKRRKLDLNNAVQ [SMC4] | 3.28 ± 0.27 | 2.87 ± 0.12 | 2.98 ± 0.067 | 2.96 ± 0.078 |
| PGSVNSAAKYKDMKLLR [NUT1] | 2.89 ± 0.11 | 2.87 ± 0.12 | 2.73 ± 0.13 | 2.96 ± 0.085 |
| SYPVNGSQKTFEIDDEH [RPS6A] | 2.98 ± 0.13 | 2.72 ± 0.12 | 2.81 ± 0.12 | 2.99 ± 0.12 |
| LPAAVSKSLQESGDTQE [RPC82] | 2.37 ± 0.096 | 2.74 ± 0.11 | 2.97 ± 0.059 | 2.83 ± 0.093 |
| ANFKTSKKYQLADWRIR [RRP6] | 2.97 ± 0.1 | 3.05 ± 0.096 | 2.84 ± 0.15 | 2.92 ± 0.1 |
| STSFSFNAPATGNGTTT [YOR098C/NUP1] | 2.73 ± 0.042 | 2.97 ± 0.037 | 3.03 ± 0.033 | 3.005 ± 0.028 |
| LLSKIMLNLIDDVKNIL [RPN6] | 2.2 ± 0.13 | 1.4 ± 0.1 | 1.25 ± 0.13 | 1.22 ± 0.08 |
| RRKDTSMVLFFVCLSCS [RPB9] | 1.3 ± 0.052 | 1.32 ± 0.07 | 1.4 ± 0.12 | 1.38 ± 0.039 |
| SVDESARIKDAFITQLE [YJL039C/NUP192] | 3.03 ± 0.12 | 2.61 ± 0.17 | 2.9 ± 0.16 | 2.87 ± 0.11 |
| NLGEYESAVKYALAAKD [RPN2] | 2.42 ± 0.15 | 2.65 ± 0.09 | 2.7 ± 0.09 | 2.8 ± 0.054 |
| GKETIARVTGGMKVKAD [RPS14B] | 1.42 ± 0.1 | 1.24 ± 0.096 | 1.85 ± 0.11 | 2.6 ± 0.11 |
| RQVYKPVLDNPFTNEAH [POP3] | 2.47 ± 0.073 | 2.67 ± 0.067 | 2.46 ± 0.082 | 2.88 ± 0.04 |
| DSPFSLICQNNLNAFVD [SRP72] | 2.98 ± 0.069 | 3 ± 0.055 | 2.85 ± 0.05 | 2.92 ± 0.046 |
| IRTILVNIHHLLNEYRP [MED7] | 2.21 ± 0.064 | 2 ± 0.065 | 1.65 ± 0.12 | 1.58 ± 0.053 |

| Sequence | protein stability index (doa10∆) | protein stability index (pdr5∆) | protein stability index (san1∆) | protein stability index (ubr1∆) |
| --- | --- | --- | --- | --- |
| QFVDMVLPNTALKTSIQ [FAS1] | 2.5 ± 0.091 | 1.61 ± 0.05 | 1.58 ± 0.12 | 1.28 ± 0.039 |
| TIQSDLNLSLHKLDLAK [SMC2] | 2.81 ± 0.049 | 2.79 ± 0.035 | 3.01 ± 0.038 | 2.828 ± 0.028 |
| SLDTLELESITESITHD [NUT1] | 2.57 ± 0.063 | 2.42 ± 0.046 | 2.76 ± 0.059 | 2.34 ± 0.035 |
| WYEASTWIQQFKSTMLQ [ARP7] | 2.54 ± 0.078 | 2.68 ± 0.069 | 2.6 ± 0.093 | 2.14 ± 0.056 |
| YSRSVDKEWVFAALSDS [SSN2] | 1.44 ± 0.088 | 1.25 ± 0.06 | 1.41 ± 0.12 | 1.3 ± 0.043 |
| VDIVNQWFLQYQNQFVE [YML103C/NUP188] | 1.79 ± 0.055 | 2.1 ± 0.054 | 1.81 ± 0.065 | 2.29 ± 0.042 |
| LMEEIESLKKELQIFKT [YIL149C/MLP2] | 2.94 ± 0.094 | 2.96 ± 0.068 | 2.82 ± 0.072 | 3.08 ± 0.055 |
| FVNGVATSFSRKKARTF [FAS2] | 1.85 ± 0.12 | 1.76 ± 0.11 | 1.22 ± 0.23 | 1.14 ± 0.074 |
| LEHLHSTAFQNTPLSLP [COR1] | 2.52 ± 0.039 | 2.66 ± 0.033 | 2.35 ± 0.035 | 2.65 ± 0.039 |
| HPGFGCWLSSVDVNTQK [RPN11] | 1.25 ± 0.23 | 1.25 ± 0.24 |  |  |
| KPPSSAFNFSFNTSRNV [YAR002W/NUP60] | 3.2 ± 0.042 | 3.18 ± 0.056 | 3.26 ± 0.045 | 3.05 ± 0.04 |
| QPKAPRAPKVIHGQDFQ [ISW2] | 2.88 ± 0.089 | 3.02 ± 0.097 | 2.94 ± 0.05 | 3.19 ± 0.058 |
| TFKDGVILGADSRTTTG [PRE3] |  | 2.8 ± 0.12 | 2.69 ± 0.19 | 2.59 ± 0.14 |
| VGFGESNFTSIIGPNGS [SMC1] | 3.37 ± 0.09 | 3.34 ± 0.078 | 3.15 ± 0.047 | 3.07 ± 0.054 |
| EEKSNEVKTPKIPLFTF [SIR4] | 2.82 ± 0.061 | 2.94 ± 0.065 | 2.57 ± 0.048 | 2.79 ± 0.047 |
| SSNLYETIIEADKSLPS [YJR042W/NUP85] | 2.76 ± 0.054 | 2.97 ± 0.052 | 2.94 ± 0.039 | 2.96 ± 0.061 |
| GQRTAYHSKRDASTPLR [RPB2] | 3.32 ± 0.092 | 3.1 ± 0.11 | 3.12 ± 0.066 | 3.25 ± 0.071 |
| KTEPVGTGLQSYLEERE [RPC53] | 3.4 ± 0.25 | 3.24 ± 0.13 | 3.21 ± 0.12 | 3.2 ± 0.11 |
| RDLILTEYGRKYNVNIS [PRP8] | 2.2 ± 0.18 | 2.42 ± 0.098 | 3.14 ± 0.23 | 2.28 ± 0.059 |
| PRALQPSQFGMLCTADT [RET1] | 1.87 ± 0.1 | 1.57 ± 0.05 | 2.02 ± 0.13 | 2.18 ± 0.051 |
| AEEVRNFALTTLIDLVK [ECM29] | 2.59 ± 0.086 | 1.9 ± 0.075 | 1.78 ± 0.073 | 2 ± 0.059 |
| SVLLQQLLTPGSKISSN [YGL172W/NUP49] | 2.46 ± 0.093 | 2.83 ± 0.089 | 3.09 ± 0.099 | 2.56 ± 0.14 |
| KAAISFGAKPEEQKSSD [YJL041W/NSP1] | 3.12 ± 0.13 | 2.94 ± 0.2 | 3.5 ± 0.17 | 3.1 ± 0.12 |
| TQPKSSSSMDMQANTNA [SSN3] | 2.55 ± 0.06 | 2.43 ± 0.046 | 3.13 ± 0.041 | 2.45 ± 0.039 |
| SYPILNESSTFLKLVLS [SIN4] | 1.97 ± 0.035 | 2.27 ± 0.034 | 2.11 ± 0.05 | 2.22 ± 0.031 |
| QQQQQQQQGQIPQSQQV [SNF5] | 2.231 ± 0.016 | 2.63 ± 0.018 | 2.257 ± 0.02 | 2.511 ± 0.02 |
